Laboratory results: publication PMC5750232, “RAD54 N-terminal domain is a DNA sensor that couples ATP hydrolysis with branch migration of Holliday junctions” (Nature Communications, 2018)

Experiments:
RAD54 1-142 T31E = biological target: T1, RAD54 1-142 T31E (human, UniProt Q92698 1-142, T31E); test: EMSA; no significant effect of mutation; 5 mM Mg2+, 2 mM ATP; 25 mM Tris-acetate pH 7.5, 5 mM Mg acetate, 100 ug/ml BSA, 2 mM DTT, 2 mM ATP, 10% glycerol, 4 C, 45 min; 30 nM PX junction; 6% native PAGE in 0.25x TBE; conditions: protein: recombinant; tags: Sumo-His, cleaved; partial X junction with one ssDNA arm, 4 strands
T1 sequence: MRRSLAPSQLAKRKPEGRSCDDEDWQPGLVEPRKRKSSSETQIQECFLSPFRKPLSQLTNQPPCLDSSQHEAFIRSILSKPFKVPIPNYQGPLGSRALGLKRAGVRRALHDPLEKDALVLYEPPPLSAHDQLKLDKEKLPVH

RAD54 1-142 52AA53 = biological target: T2, RAD54 1-142 52AA53 (human, UniProt Q92698 1-142, R52A;K53A); test: EMSA; similar to non-mutated 1-142; 5 mM Mg2+, 2 mM ATP; 25 mM Tris-acetate pH 7.5, 5 mM Mg acetate, 100 ug/ml BSA, 2 mM DTT, 2 mM ATP, 10% glycerol, 4 C, 45 min; 30 nM PX junction; 6% native PAGE in 0.25x TBE; conditions: protein: recombinant; tags: Sumo-His, cleaved; partial X junction with one ssDNA arm, 4 strands
T2 sequence: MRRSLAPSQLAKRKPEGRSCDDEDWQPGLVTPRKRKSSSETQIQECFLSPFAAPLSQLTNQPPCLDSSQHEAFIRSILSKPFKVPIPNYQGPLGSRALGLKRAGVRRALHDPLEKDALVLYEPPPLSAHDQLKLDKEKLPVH

B1: non-mobile PX junction (174/175/176/181) (structured_DNA)
DNA 1: GACGCTGCCGAATTCTACCAGTGCCTTGCTAGGACATCTTTGCCCACCTGCAGGTTCACCC
DNA 2: TGGGTGAACCTGCAGGTGGGCAAAGATGTCCTAGCAATGTAATCGTCAAGCTTTATGCCGTT
DNA 3: CAACGGCATAAAGCTTGACGATTACATTGCTAGGACATGCTGTCTAGAGGATCCGACTATCGA
DNA 4: TCGATAGTCGGATCCTCTAGACAGC
RAD54 1-142 T31E
  binding result: binds
RAD54 1-142 52AA53
  binding result: binds
